Source: paper PMC2998059

Target: GST-PC1 C-terminus deletion mutant SH3
Assay: pull-down

binding relative to PC1-FLCT: 50%
Substance: myc-tagged QLα12 (constitutively active, GTPase-deficient Gα12) (from UniProt P27600 48-379) (natural protein)
